Here are results for two molecules from patent US20140348785A1.

Assay [1] addresses biotinylated gp41 MPER peptide RRR-(656-683)-RRK-biotin (HIV-1). The assay is described as follows: SPR: biotinylated MPER peptide on an SA chip, Fab as analyte, 1:1 Langmuir fit.
The target in assay [2] is soluble gp41 MPER peptide RRR-(656-683)-RRR (HIV-1). Briefly: SPR: variant IgG captured on an anti-human IgG chip, MPER peptide as analyte.

B1: 10E8 Fab (antigen binding fragment of 10E8) (Fab, V domains shown)
VH: EVQLVESGGGLVKPGGSLRLSCSASGFDFDNAWMTWVRQPPGKGLEWVGRITGPGEGWSVDYAAPVEGRFTISRLNSINFLYLEMNNLRMEDSGLYFCARTGKYYDFWSGYPPGEEYFQDWGRGTLVTVSS
VL: SYELTQETGVSVALGRTVTITCRGDSLRSHYASWYQKKPGQAPILLFYGKNNRPSGVPDRFSGSASGNRASLTISGAQAEDDAEYYCSSRDKSGSRLSVFGGGTKLTVL
The molecule B1 had an equilibrium dissociation constant (Kd) in assay [1] of 17 nM.

B2: 10E8 IgG alanine variant E53A (heavy chain, Kabat) (antibody, V domains shown)
VH: EVQLVESGGGLVKPGGSLRLSCSASGFDFDNAWMTWVRQPPGKGLEWVGRITGPGAGWSVDYAAPVEGRFTISRLNSINFLYLEMNNLRMEDSGLYFCARTGKYYDFWSGYPPGEEYFQDWGRGTLVTVSS
VL: SYELTQETGVSVALGRTVTITCRGDSLRSHYASWYQKKPGQAPILLFYGKNNRPSGVPDRFSGSASGNRASLTISGAQAEDDAEYYCSSRDKSGSRLSVFGGGTKLTVL
With B2, the fold decrease in affinity relative to wild type 10E8 in assay [2] came out at 60 fold.
